To fix the notation:
B1: GLP-1 derivative of Example 15: N{Epsilon-18}, N{Epsilon-22}, N{Epsilon-30}-triacylated [Aib8,Lys18,Lys22,Arg26,Lys30,Arg34]-GLP-1-(7-37)-peptide (peptide)
peptide: H[Aib]EGTFTSDVSK([AEEA-AEEA-AEEA-AEEA-AEEA-εLys-εLys-C20 diacid])YLEK([AEEA-AEEA-AEEA-AEEA-AEEA-εLys-εLys-C20 diacid])QAAREFIK([AEEA-AEEA-AEEA-AEEA-AEEA-εLys-εLys-C20 diacid])WLVRGRG
notes: Full chemical name printed at h-0080
B2: GLP-1 derivative of Example 4: N{Epsilon-18}, N{Epsilon-22}, N{Epsilon-30}-triacylated [Aib8,Lys18,Lys22,Arg26,Lys30,Arg34]-GLP-1-(7-37)-peptide (peptide)
peptide: H[Aib]EGTFTSDVSK([AEEA-AEEA-Cya-Trx-Hexadecanoyl(16-SO3H)])YLEK([AEEA-AEEA-Cya-Trx-Hexadecanoyl(16-SO3H)])QAAREFIK([AEEA-AEEA-Cya-Trx-Hexadecanoyl(16-SO3H)])WLVRGRG
notes: Full chemical name printed at h-0058 (it prints 'Lys8' where Lys18 is meant)
B3: GLP-1 derivative of Example 7: N{Epsilon-18}, N{Epsilon-27}, N{Epsilon-37}-triacylated [Aib8,Lys18,Glu22,Arg26,Lys27,Arg34,Lys37]-GLP-1-(7-37)-peptide (peptide)
peptide: H[Aib]EGTFTSDVSK([AEEA-γGlu-AEEA-C18 diacid])YLEEQAARK([AEEA-γGlu-AEEA-C18 diacid])FIAWLVRGRK([AEEA-γGlu-AEEA-C18 diacid])
notes: Full chemical name printed at h-0064
B4: GLP-1 derivative of Example 13: N{Epsilon-18}, N{Epsilon-22}, N{Epsilon-30}-triacylated [Aib8,Lys18,Lys22,Arg26,Lys30,Arg34]-GLP-1-(7-37)-peptide (peptide)
peptide: H[Aib]EGTFTSDVSK([AEEA-AEEA-εLys-Hexadecanoyl(16-SO3H)])YLEK([AEEA-AEEA-εLys-Hexadecanoyl(16-SO3H)])QAAREFIK([AEEA-AEEA-εLys-Hexadecanoyl(16-SO3H)])WLVRGRG
notes: Full chemical name printed at h-0076
B5: GLP-1 derivative of Example 5: N{Epsilon-18}, N{Epsilon-27}, N{Epsilon-37}-triacylated [Aib8,Lys18,Glu22,Arg26,Lys27,Arg34,Lys37]-GLP-1-(7-37)-peptide (peptide)
peptide: H[Aib]EGTFTSDVSK([AEEA-AEEA-γGlu-C18 diacid])YLEEQAARK([AEEA-AEEA-γGlu-C18 diacid])FIAWLVRGRK([AEEA-AEEA-γGlu-C18 diacid])
notes: Full chemical name printed at h-0060
B6: GLP-1 derivative of Example 12: N{Epsilon-26}, N{Epsilon-30}, N{Epsilon-37}-triacylated [Aib8,Glu22,Lys30,Arg34,Lys37]-GLP-1-(7-37)-peptide (peptide)
peptide: H[Aib]EGTFTSDVSSYLEEQAAK([εLys-AEEA-AEEA-Cya-Hexadecanoyl(16-SO3H)])EFIK([εLys-AEEA-AEEA-Cya-Hexadecanoyl(16-SO3H)])WLVRGRK([εLys-AEEA-AEEA-Cya-Hexadecanoyl(16-SO3H)])
notes: Full chemical name printed at h-0074
B7: GLP-1 derivative of Example 10: N{Epsilon-27}, N{Epsilon-30}, N{Epsilon-37}-triacylated [Aib8,Glu22,Arg26,Lys27,Lys30,Arg34,Lys37]-GLP-1-(7-37)-peptide (peptide)
peptide: H[Aib]EGTFTSDVSSYLEEQAARK([AEEA-AEEA-γGlu-C18 diacid])FIK([AEEA-AEEA-γGlu-C18 diacid])WLVRGRK([AEEA-AEEA-γGlu-C18 diacid])
notes: Full chemical name printed at h-0070
B8: GLP-1 derivative of Example 9: N{Epsilon-18}, N{Epsilon-27}, N{Epsilon-37}-triacylated [Aib8,Lys18,Arg26,Lys27,Arg34,Lys37]-GLP-1-(7-37)-peptide (peptide)
peptide: H[Aib]EGTFTSDVSK([Ser-Ser-Ser-Ser-Ser-Ser-γGlu-C18 diacid])YLEGQAARK([Ser-Ser-Ser-Ser-Ser-Ser-γGlu-C18 diacid])FIAWLVRGRK([Ser-Ser-Ser-Ser-Ser-Ser-γGlu-C18 diacid])
notes: Full chemical name printed at h-0068
B9: GLP-1 derivative of Example 11: N{Epsilon-26}, N{Epsilon-30}, N{Epsilon-37}-triacylated [Aib8,Glu22,Lys30,Arg34,Lys37]-GLP-1-(7-37)-peptide (peptide)
peptide: H[Aib]EGTFTSDVSSYLEEQAAK([εLys-AEEA-AEEA-γGlu-C18 diacid])EFIK([εLys-AEEA-AEEA-γGlu-C18 diacid])WLVRGRK([εLys-AEEA-AEEA-γGlu-C18 diacid])
notes: Full chemical name printed at h-0072
B10: GLP-1 derivative of Example 19: N{Epsilon-18}, N{Epsilon-22}, N{Epsilon-30}-triacylated [Aib8,Lys18,Lys22,Arg26,Lys30,Arg34]-GLP-1-(7-37)-peptide (peptide)
peptide: H[Aib]EGTFTSDVSK([AEEA-AEEA-AEEA-AEEA-εLys-εLys-Ahx-Hexadecanoyl(16-SO3H)])YLEK([AEEA-AEEA-AEEA-AEEA-εLys-εLys-Ahx-Hexadecanoyl(16-SO3H)])QAAREFIK([AEEA-AEEA-AEEA-AEEA-εLys-εLys-Ahx-Hexadecanoyl(16-SO3H)])WLVRGRG
notes: Full chemical name printed at h-0088; the printed name is uneven in the number of OEG units for the side chains at 18 and 22 (four opened, three closed)

Numbered stars: 1 amine (or outer) side, 2 acyl side, 3 side chain; on linkers, the order of the positions; unused ones are H or OH. Square brackets hold non-standard residues; d marks the D form. Side chains are listed from the residue outwards. Ends that are not written are not given here. * marks the point of attachment. Hexadecanoyl(16-SO3H) = O=C(CCCCCCCCCCCCCCCS(=O)(=O)O)*; C20 diacid = O=C(O)CCCCCCCCCCCCCCCCCCC(=O)*; C18 diacid = O=C(O)CCCCCCCCCCCCCCCCC(=O)*; γGlu = O=C(O)[C@H](CCC(=O)[*:2])N[*:1]; εLys = N[C@@H](CCCCN[*:1])C(=O)[*:2]; Cya = N[C@@H](CS(=O)(=O)O)C(=O)O; Trx = NC[C@H]1CC[C@H](C(=O)O)CC1; AEEA = NCCOCCOCC(=O)O; Aib = CC(C)(N)C(=O)O; Ahx = NCCCCCC(=O)O Where only a bound is given, the exact number is not on record here.

In one assay the target is T1, human GLP-1 receptor (human, UniProt P43220 24-463). In words: cell-based or functional assay.
In the case of B1, the “In vitro potency EC50 (CRE luciferase reporter gene assay, BHK cells)” value (“In vitro potency EC50” for short) was 0.082 nM.

Consider B2, for which the “In vitro potency EC50” value amounted to 0.014 nM.

Turning to B3, the “In vitro potency EC50” value stood at 0.076 nM.

For the molecule B4, the “In vitro potency EC50” value was 0.026 nM.

As for B5, the “In vitro potency EC50” value turned out to be 0.04 nM.

As to B6, the “In vitro potency EC50” value worked out at 0.099 nM.

For the molecule B7, the “In vitro potency EC50” value was determined as 0.026 nM.

In the case of B8, the “In vitro potency EC50” value came out at 0.067 nM.

On to B9, for which the “In vitro potency EC50” value stood at 0.085 nM.

For B10, the “In vitro potency EC50” value stood at 0.019 nM.

A further assay has as its target T1, human GLP-1 receptor. Briefly: competitive SPA binding, displacement of 125I-GLP-1(7-36)NH2 from BHK membranes with human GLP-1R, high HSA (2.0%).
Method: (§1) For the receptor binding assay in the presence of low HSA (0.005%) 50 μl of the assay buffer was added to each well of an assay plate. Assay continued with step 3. […] For the receptor binding assay in the presence of high HSA (2%) 50 μl of the 8% albumin stock was added to each well of an assay plate. Assay continued with step 3. […] Cell membrane aliquots were thawed and diluted to their working concentration. Fifty μl were added to each well in the assay plate. […] WGA SPA beads were suspended in assay buffer at 20 mg/ml. The suspension was diluted to 10 mg/ml in assay buffer just prior to addition to the assay plate. Fifty μl were added to each well in the assay plate. […] A 25 μl aliquot was reserved for measuring total counts/well. […] The assay plate was incubated for 2 h at 30° C. […] The assay plate was centrifuged for 10 min. […] The assay plate was read in a Packard TopCount NXT instrument.
Usually IC50 stands for the midpoint of a concentration-inhibition curve. The low end stands for greater potency in that assay, the high end for weaker potency in that assay. B1: the IC50 amounted to 426 nM.

For B2, the IC50 turned out to be 351 nM.

B3 gave an IC50 above 1000 nM.

Take B4: the 50% inhibitory concentration (IC50) was 84 nM.

Molecule B5 returned a half-inhibitory concentration (IC50) above 1000 nM.

As for B6, the IC50 was determined as 214 nM. This counts as sub-micromolar.

Consider B7, for which the IC50 turned out to be 188 nM.

In turn, B8 yielded an IC50 above 1000 nM.

Turning to B9, the IC50 is above 1000 nM.

Turning to B10, the concentration for half-maximal inhibition (IC50) is 49 nM.

A further assay addresses T1, human GLP-1 receptor. In words: competitive SPA binding, displacement of 125I-GLP-1(7-36)NH2 from BHK membranes with human GLP-1R, low HSA (max. 0.001%). For orientation: In a radioligand displacement assay an active substance lowers the binding of a labelled ligand.
Method: as §1
Take B1: the IC50 was 11 nM.

B2: the IC50 amounted to 1.6 nM.

Regarding B3, the IC50 came out at 0.7 nM.

B4 returned an IC50 of 0.23 nM.

Consider B5, for which the IC50 was found to be 0.6 nM.

The molecule B6 displayed an IC50 of 5 nM.

The molecule B7 came in with an IC50 of 0.82 nM.

The molecule B9 showed an IC50 of 8.7 nM.

B10 had an IC50 of 0.15 nM.

For the origin of these results see US20160200791A1 (Novo Nordisk, published 2016).
